Consider 19 sequences from a protein production outcome set (Wang et al. 2014).

This data set in a line: label from the status in PepcDB records.
On to “MKVTDVRLRKIQTDGRMKALVSITLDEAFVIHDLRVIEGNSGLFVAMPSKRTPDGEFRDIAHPINSDMRQEIQDAVMKVYDETD”, for which the protein production entry is recorded as “not failed”. With “MYRIIEAPNSGKYPFSHSLLIGKSCIIDTGSGEALAPLRVDCVLNTHWHEDHIAMNSIGRKVLAHPLDAEAIESYEEFRRRYGIGDSVRLFINFEFGQVDDVFEDGEQLEFEGVSVEVIHTPGHSAGHCCFVINNEAVFLGDIDLTSFGPWYGCLDCDVDDFVRSVKKMMREVERRDIEIAIPSHGRPVYGKEEIIGAMREYLKKIFERDKAIRELVRLGVDPVGKGIIYRKIPEPREIYLHFEKIMVEKHLTTSLDEFCLDLEHHHHHH”, the protein production result is reported as “failed”. Take “GDIEQAAGHVVDGLSHLEVHPDVPDGIRALRERGFRLVTMTNGSSDLSKRLLGRAGLADCFESHLDASGPQRWKPAQAAYQYVVEQVGVRLDEAVLVAVHPWDVDGAQRAGLGGAWLRRDAADYPQVMLPPTYTVGNLRELAETLA”: the protein production entry was “failed”. For “MKRFIVRAVLILVSFVLLIQLWIFCSLAWWRTHPVETTMFMRLDYWSDSSKPIQQQWRDYDEISDNFKKAVVAAEDGKFVHHHGFDWEGIQYALEKNEKSGEVVNGGSTISQQLAKNLFLYNQRSLIRKGQEAIATWMMERMWSKQRILEVYMNSVQFGDHLYGVEAASHYYFHRSAQNLTRDQAAFLAALLPNPKYYQENRNDPRFKFKKRFTLKYMRYSEIP” the value was “failed”. As to “MGTEAEQPSPPAQQQDQENPPLCKAQNPKPARLYRFVLIFVAGSLAAWTFHALSSTNLVWKLRQLHHLPTAHYLQTRDEFALYSVEELNAFKEFYDKSVSDSVGASYTEAEQTNIKEALGALRMAQDLYLAGKDDKAARLFEHALALAPRHPEVLLRYGEFLEHNQRNIVLADQYYFQALTISPSNSEALANRQRTADVVQSLDERRLESLDSKRDALSAIHESNGALRRAKKEAYFQHIYHSVGIEGNTMTLAQTRSILETRMAVDGKSIDEHNEILGMDLAMKYINASLVQKIDITIKDILELHRRVLGHVDPIEGGEFRRNQVYVGGHIPPGPGDLALLMQRFERWLNSEHSSTLHPVNYAALAHYKLVHIHPFVDGNGRTSRLLMNTLLMRAGYPPVIIPKQQRSKYYHFLKLANEGDIRPFVRFIADCTEKTLDLYLWATSDLPQQIPMLIQTESEAGERLAQMQSPNVAQRSSILEFYESGSGDLP”, the protein production entry was “failed”.

Take “QQMETGDQRFGDLVFRQLAPNVWQHTSYLDMPGFGAVASNGLIVRDGGRVLVVDTAWTDDQTAQILNWIKQEINLPVALAVVTHAHQDKMGGMDALHAAGIATYANALSNQLAPQEGMVAAQHSLTFAANGWVEPATAPNFGPLKVFYPGPGHTSDNITVGIDGTDIAFGGCLIKDSKAKSLGNLGDADTEHYAASARAFGAAFPKASMIVMSHSAPDSRAAITHTARMADKLR”: the protein production result is “not failed”. Take “MKLSATIAIILLNWNGWRDTVDCVESCRKLDYPNFRIVIVDNGSTDGSEAILRERFPDVELIQTGANLGFAGGNNAGIRHALVRGADYVWLLNNDTVVEPGALGALVRVAESDPRVGMVGSKIVYFDDPWLLWFAGAVIDPERPHRPFHRGLHERDTGQYDRVAETGYVTGCSLLARREMMAEVGMLDDDLFLYFEDADWSARAARAGWKLLYVPDSVVRHKESVSSGGAASPRLVYYTARNRLYFVRRNFPAKLAAALCYDLFEHVLVNVKKGRFPLAVAGCRGIRDFLAGKIGPMPLEHHHHHH”: the protein production result is “not failed”. “MDKRLIVMHNLSRHYGKQYWWQQNSLEDWLMMILIQRTSSKNVAQAVHNLQPYMQVDRLMALSQSELETLVRPAGFYRQKAQRIHDLLTWFVAQGGSFEKIAEKPAAELRETLLALNGIGNETADVMLMYTFGKKTFVADTYAMRLFNRLGFGPYTNYAKMQADFAPALDQITLDEAREWHALIDEHGKTQVRHAYDDRFLLQPDLTEAAWPPEAVQVEPPHDDPGSGKWRHAADPSAMTHK”: the protein production result is “failed”. As to “MNVSNGDLIVEKIVANRKYHALKRQRNVLSWLLTLLMLVVYFGFIGLIAFNKAFLAVPLASGVTTRGIPIAIGVMLFAIIVTAVYVFFSNIVYDKLSRNILEDACK”, the protein production entry is “failed”. Then “MTLRPDPTFYPSAKLAMEGPVEKLAFTLMLSPDASKPDGLAVVDVDPTSEKFGQIVHQLIMPNKGDEFHHFGWNACSSALSPLTGHAFLERRYLIIPGIRSSRIYIVDVKEPLKAKIHKIIEPEEVFAKTGYSRPHTIHCGPEGIYVSTLGGGGEDGTDGPPGIFILDCETFEILGRYEMDRGEQTKHYDFWWNLPRDYMVSSEWGLPPQFENGIVPEDLLSNKYGHKIHFWKLRDRKNVQTIDLGANHQMALEIRPAHDPSKDYGFCGVVVDTTNLQGAIFTWWQKDDGTFEAKKTITIDPVPADADDLPDLLKGFGACPPLVTDIDLSLDDKYLYVACWGLGEMHQYDVSDPMNPVLTGKVEIGGIVKKTPHPNGKTFGYGPQMVEISRDGKRVYWTNSLYSTWDEQFYPGDRGAAMVMANVGENGGLTLDKDFWVDFPAGYRSHQIRLEGGDCSTDSFCYPSV”, with “failed”; and “MSLDIQSLDIQCEELSDARWAELLPLLQQCQVVRLDDCGLTEARCKDISSALRVNPALAELNLRSNELGDVGVHCVLQGLQTPSCKIQKLSLQNCCLTGAGCGVLSSTLRTLPTLQELHLSDNLLGDAGLQLLCEGLLDPQCRLEKLQLEYCSLSAASCEPLASVLRAKPDFKELTVSNNDINEAGVRVLCQGLKDSPCQLEALKLESCGVTSDNCRDLCGIVASKASLRELALGSNKLGDVGMAELCPGLLHPSSRLRTLWIWECGITAKGCGDLCRVLRAKESLKELSLAGNELGDEGARLLCETLLEPGCQLESLWVKSCSFTAACCSHFSSVLAQNRFLLELQISNNRLEDAGVRELCQGLGQPGSVLRVLWLADCDVSDSSCSSLAATLLANHSLRELDLSNNCLGDAGILQLVESVRQPGCLLEQLVLYDIYWSEEMEDRLQALEKDKPSLRVIS”, with “not failed”. For the sequence “SFRTTKEEVVEKAKAFISAHYTEELNLSVIASQLYVNPFYLRRIFKEETELSPSQYLLKKRIEAALALLVNQEETITDIAFKVGFKSPAHFSTVFRHMIGLPPQKYRES”, the protein production result is given as “failed”. Take “MTVTNMTEWFAKGVEALHHDHVYLARACFEQAVTEQRSPLSSSYLALCQAKTRGTFSDAIASAREAVAADPANPALYHNLGCIYLLAGKRTEAIETFRQGLRVGLEHHHHHH”: the protein production result is given as “not failed”. “MSVAHENARRIISDILGKQNIERVWFVGCGGSLTGFWPGKYFLDCEASKLAVGYITSNEFVHATPKALGKNSVVILASQQGNTAETVAAARVAREKGAATIGLVYQPDTPLCEYSDYIIEYQWARYPETVDPAQQKAAYSLWLALEILAQTEGYAQYDELVSAFGRFSDVVHGAQRQVQEDAQRFAAEWKDEKVVYMMGSGPSFGAAHQESICILLEMQWINSASIHSGEYFHGPFEITEPGTPFILLQSSGRTRPLDDRAIRFIERYQGKLQLIDADKLGIQDLSTDVGEYFCGLLHNCVLDVYNLALATARNHPLTTRRYMWKVEY”: the protein production result is “not failed”.

As to “MPTIFQIPTFIQILEFIGTFAFAISGIRLASAKQFDWFGAYVAGVAVAIGGGTIRDVLLDVTPFWMTNPIYLICSALALLWVIFFRKHLIHMHNTFFIFDSIGLALFTVVGISKTIDLGYAFWVAIIMGTMTGAAGGVIRDVFINEIPLIFRKEIYAMACVIGGVIYWGLDRFGVDAALTQVISGCCIFVVRALAVKYQICLPILKGE”, the protein production entry is “failed”. As to “MRYLFSLLFLLAYGSTVAQQPPMLPRDAAIEAKIEKLLEQMSLDEKIGQMVELEIGMITYRDPRYVVEKLARMSEQELADTLRRFGLDKQHNAAQLALTTPEDKQNKEKLMRLYWVSNDIQSKLPFRLDEAALDSVVGKYKVGSILNAPQTTAQTPAMWNQVVKTIQDVSIKHLGIPTVYGLDQMHGTTYSTGGTLFPGAINMAATFNRDLVYKMGEIVAYETRACNVPWIYGPCIDLGRMQAWSRQYESFGEDVFLSSEMGAAALRGMQGDNPNHIDAYHVAGCLKHYFAYGAPYNGLDRSPARLSYEELREKQFAPFLRGIREGALSIMTNSSNVNGVKGTVNREFITGWLKEGLGWDGMVVTDWGDIDGAVTSDRVVPTAKEAIRLAINAGVDMMMVPSQFTYNGLLKELVEEGGVSMERIDDAVRRILRLKHRVGLFEQPNTFAKDYPKFGSEEFAAYSRQAALESIVLLKNDSVDSQSRLLPIKQGTRLLVCGPNANSMRTLNGGWSYTWQGDGADREEFTGHFNTIYEALRNKFGSNHVTLVEGVSYDSKRWAMDHADNIGDAVAAAADNDYVIVCIGENTYAETRGNIADINLSTNQKNLVKALAATGKPIILVLNESRGRAISDIEPLAKAVVHTMLPGNYGGDALAELLAGNENFSGRLPYTYSAQPNAMVNYDYKASEVRETISGVYDYNAKTYEQWWFGAGMSYTTYTYSNLRADKNSFTKDDVLTFTVDVKNTGAMAGKETVMLYASDLYASLMPDNRRLRGFEKIVLAPDESKTVTFRIKASDLAFMGTGKKWTLEAGEFNIACGDQSVSIHCTEDYTWEEENIPDN”, the protein production result was “failed”.

Regarding “MDLLLKGGWVVTQERVEQADIAVEGEKIAAIGPDLEARAAAVRDVTGKYILPGAIDAHVHYQMPIGELLTADDWFTGTRLAACGGVTTVIDYAEPAGPAEPLTEALAKRLEEAREQACVDYGLHQVVLPGQEEDTGELAKVIEQGVTSFKVFTTYKQCLGYAAIGRLLKQARRLGALVTVHCEDHDLVTARRRELEATGQTDPAYHANSRPAAAEVKAIEKVIRQAAAAGAPVYIVHVSTGGGAELIAAARARGQQVFGETCPHYLLLTEERYAGPDSRLFLMCPPLRTVKDNRILWQHLASGDLQVVATDHCSYSPEQKAAGTAFYNTPSGVPGTETLLPLLYSYGVRQGRLTLPQMVRVLATNPARLFGLYPRKGCLAPGSDADLVVFDPSQEVILKASDLHSAAAYTIFEGFALQGYVEATYLRGRLIYDLGRFLGRAGQGEFIPGKITVL”, the protein production result is reported as “failed”. On to “MKIQCDVCEKAPATLICCADEAALCAKCDVEVHAANKLASKHQRLFLDSLSTKFPPCDICLEKAAFIFCVEDRALLCRDCDEATHAPNTRSANHQRFLATGIRVALSSTSCNQEVEKNHFDPSNQQSLSKPPTQQPAAPSPLWATDEFFSYSDLDCSNKKEQLDLGELDWLAEMGLFGDQPDQEALPVAEVPELSFSHLAHAHSYNRPMKSNVPNKKQRLEYRYDDEEEHFLVPDLG”, for which the protein production entry was “not failed”. On to “MANKNPLQKPFLFIILSINLIFLQAETTTQISTKKTYVIHMDKSAMPLPYTNHLQWYSSKINSVTQHKSQEEEGNNNRILYTYQTAFHGLAAQLTQEEAERLEEEDGVVAVIPETRYELHTTRSPTFLGLERQESERVWAERVTDHDVVVGVLDTGIWPESESFNDTGMSPVPATWRGACETGKRFLKRNCNRKIVGARVFYRGYEAATGKIDEELEYKSPRDRDGHGTHTAATVAGSPVKGANLFGFAYGTARGMAQKARVAAYKVCWVGGCFSSDILSAVDQAVADGVQVLSISLGGGVSTYSRDSLSIATFGAMEMGVFVSCSAGNGGPDPISLTNVSPWITTVGASTMDRDFPATVKIGTMRTFKGVSLYKGRTVLPKNKQYPLVYLGRNASSPDPTSFCLDGALDRRHVAGKIVICDRGVTPRVQKGQVVKRAGGIGMVLTNTATNGEELVADSHMLPAVAVGEKEGKLIKQYAMTSKKATASLEILGTRIGIKPSPVVAAFSSRGPNFLSLEILKPDLLAPGVNILAAWTGDMAPSSLSSDPRRVKFNILSGTSMSCPHVSGVAALIKSRHPDWSPAAIKSALMTTAYVHDNMFKPLTDASGAAPSSPYDHGAGHIDPLRATDPGLVYDIGPQEYFEFLCTQDLSPSQLKVFTKHSNRTCKHTLAKNPGNLNYPAISALFPENTHVKAMTLRRTVTNVGPHISSYKVSVSPFKGASVTVQPKTLNFTSKHQKLSYTVTFRTRFRMKRPEFGGLVWKSTTHKVRSPVIITWLPPL”, for which the protein production entry is reported as “failed”.
